Experimental data: US20120178701A1 (PALATIN TECHNOLOGIES, published 2012)
Numbered stars: 1 amine (or outer) side, 2 acyl side, 3 side chain; on linkers, the order of the positions; unused ones are H or OH. Bridge positions count the residues as written; N and C are the ends. Square brackets hold non-standard residues; d marks the D form. * marks the point of attachment. Hyp(Bzl) = O-benzyl-hydroxyproline, O=C([C@@H]1C[C@@H](OCc2ccccc2)CN1[*:1])[*:2]; Thr(Bzl) = O-benzyl-threonine, C[C@@H](OCc1ccccc1)[C@H](N[*:1])C(=O)[*:2]; Pro(trans-4-NH2) = O=C([C@@H]1C[C@@H](N[*:3])CN1[*:1])[*:2]; Phe(3-CONH2) = NC(=O)c1cccc(C[C@H](N)C(=O)O)c1; Phe(4-CONH2) = NC(=O)c1ccc(C[C@H](N)C(=O)O)cc1; Met(O2) = CS(=O)(=O)CC[C@H](N)C(=O)O; Hyp = O=C(O)[C@@H]1C[C@@H](O)CN1; Met(O) = CS(=O)CC[C@H](N)C(=O)O; Cit = NC(=O)NCCC[C@H](N)C(=O)O; Orn = NCCC[C@H](N)C(=O)O; Dab = NCC[C@H](N)C(=O)O; Pentanoyl = CCCCC(=O)*

B1: Ac-Arg-cyclo(hGlu-Gln-D-Phe-Arg-Trp-Dab)-NH2 (peptide)
peptide: RXQFRWX
modifications: N-acetyl; X2 = hGlu; D-Phe 4; X7 = Dab; side-chain lactam hGlu2-Dab7; C-terminal amide
notes: also called peptide No. 147
B2: Ac-Arg-cyclo(hGlu-Met(O2)-D-Phe-Arg-Trp-Dab)-NH2 (peptide)
peptide: RXMFRWX
HELM: PEPTIDE1{[ac].R.[O=C([C@H](CCCC(=O)[*:3])N[*:1])[*:2]].[CS(=O)(=O)CC[C@H](N[*:1])C(=O)[*:2]].[dF].R.W.[Dab].[am]}$PEPTIDE1,PEPTIDE1,3:R3-8:R3$$$V2.0
SMILES: CC(=O)N[C@@H](CCCNC(=N)N)C(=O)N[C@H]1CCCC(=O)NCC[C@@H](C(N)=O)NC(=O)[C@H](Cc2c[nH]c3ccccc23)NC(=O)[C@H](CCCNC(=N)N)NC(=O)[C@@H](Cc2ccccc2)NC(=O)[C@H](CCS(C)(=O)=O)NC1=O
B3: Ac-Orn-cyclo(Orn-Asn-D-Phe-Arg-Trp-Glu)-NH2 (peptide)
peptide: XXNFRWE
HELM: PEPTIDE1{[ac].[Orn].[Orn].N.[dF].R.W.E.[am]}$PEPTIDE1,PEPTIDE1,3:R3-8:R3$$$V2.0
SMILES: CC(=O)N[C@@H](CCCN)C(=O)N[C@H]1CCCNC(=O)CC[C@@H](C(N)=O)NC(=O)[C@H](Cc2c[nH]c3ccccc23)NC(=O)[C@H](CCCNC(=N)N)NC(=O)[C@@H](Cc2ccccc2)NC(=O)[C@H](CC(N)=O)NC1=O
notes: also called peptide No. 158
B4: Ac-Gln-cyclo(Asp-Dab-D-Phe-Arg-Trp-Lys)-NH2 (peptide)
peptide: QDXFRWK
HELM: PEPTIDE1{[ac].Q.D.[Dab].[dF].R.W.K.[am]}$PEPTIDE1,PEPTIDE1,3:R3-8:R3$$$V2.0
SMILES: CC(=O)N[C@@H](CCC(N)=O)C(=O)N[C@H]1CC(=O)NCCCC[C@@H](C(N)=O)NC(=O)[C@H](Cc2c[nH]c3ccccc23)NC(=O)[C@H](CCCNC(=N)N)NC(=O)[C@@H](Cc2ccccc2)NC(=O)[C@H](CCN)NC1=O
notes: also called peptide No. 142
B5: Ac-Arg-cyclo(Asp-His-D-Nal 1-Arg-Trp-Lys)-NH2 (peptide)
peptide: RDHXRWK
modifications: N-acetyl; X4 = D-Nal 1 (D-3-(1-naphthyl)alanine); side-chain lactam Asp2-Lys7; C-terminal amide
notes: also called peptide No. 19
B6: Ac-Arg-cyclo(Lys-Dab-D-Phe-Arg-Trp-Asp)-NH2 (peptide)
peptide: RKXFRWD
HELM: PEPTIDE1{[ac].R.K.[Dab].[dF].R.W.D.[am]}$PEPTIDE1,PEPTIDE1,3:R3-8:R3$$$V2.0
SMILES: CC(=O)N[C@@H](CCCNC(=N)N)C(=O)N[C@H]1CCCCNC(=O)C[C@@H](C(N)=O)NC(=O)[C@H](Cc2c[nH]c3ccccc23)NC(=O)[C@H](CCCNC(=N)N)NC(=O)[C@@H](Cc2ccccc2)NC(=O)[C@H](CCN)NC1=O
notes: also called peptide No. 121
B7: Ac-Arg-cyclo(Lys-Dab-D-Phe-Arg-Trp-Asp)-OH (peptide)
peptide: RKXFRWD
HELM: PEPTIDE1{[ac].R.K.[Dab].[dF].R.W.D}$PEPTIDE1,PEPTIDE1,3:R3-8:R3$$$V2.0
SMILES: CC(=O)N[C@@H](CCCNC(=N)N)C(=O)N[C@H]1CCCCNC(=O)C[C@@H](C(=O)O)NC(=O)[C@H](Cc2c[nH]c3ccccc23)NC(=O)[C@H](CCCNC(=N)N)NC(=O)[C@@H](Cc2ccccc2)NC(=O)[C@H](CCN)NC1=O
notes: also called peptide No. 131
B8: Ac-Arg-cyclo(Asp-Ala-D-Phe-Arg-Trp-Lys)-OH (peptide)
peptide: RDAFRWK
HELM: PEPTIDE1{[ac].R.D.A.[dF].R.W.K}$PEPTIDE1,PEPTIDE1,3:R3-8:R3$$$V2.0
SMILES: CC(=O)N[C@@H](CCCNC(=N)N)C(=O)N[C@H]1CC(=O)NCCCC[C@@H](C(=O)O)NC(=O)[C@H](Cc2c[nH]c3ccccc23)NC(=O)[C@H](CCCNC(=N)N)NC(=O)[C@@H](Cc2ccccc2)NC(=O)[C@H](C)NC1=O
notes: also called peptide No. 52
B9: Ac-Arg-cyclo(Asp-Ala-D-Phe-Lys-Trp-Lys)-NH2 (peptide)
peptide: RDAFKWK
HELM: PEPTIDE1{[ac].R.D.A.[dF].K.W.K.[am]}$PEPTIDE1,PEPTIDE1,3:R3-8:R3$$$V2.0
SMILES: CC(=O)N[C@@H](CCCNC(=N)N)C(=O)N[C@H]1CC(=O)NCCCC[C@@H](C(N)=O)NC(=O)[C@H](Cc2c[nH]c3ccccc23)NC(=O)[C@H](CCCCN)NC(=O)[C@@H](Cc2ccccc2)NC(=O)[C@H](C)NC1=O
notes: also called peptide No. 8

Target: T1, human recombinant melanocortin-4 receptor (human, UniProt P32245 1-332)
T1 construct: whole, on cells; cAMP assays used the whole cells; also called hMC4-R; MC4-R
Assay: competitive inhibition of [I125]-NDP-α-MSH, hMC4-R HEK-293 membranes
Method: A competitive inhibition binding assay is performed using membrane homogenates prepared from HEK-293 cells that express recombinant hMC4-R, hMC3-R, or hMC5-R, and from B-16 mouse melanoma cells (containing endogenous MC1-R). In some instances, HEK-293 cells that express recombinant hMC1-R were employed. In the examples that follow, all MC3-R, MC4-R and MC5-R values are for human recombinant receptors. […] Membrane homogenates were incubated with 0.2 nM (for hMC4-R) 0.4 nM (for MC3-R and MC5-R) or 0.1 nM (for mouse B16 MC1-R or hMC1-R) [I¹²⁵]-NDP-α-MSH (Perkin Elmer) and increasing concentrations of test peptides of the present invention in buffer containing 25 mM HEPES buffer (pH 7.5) with 100 mM NaCl, 2 mM CaCl₂, 2 mM MgCl₂, 0.3 mM 1,10-phenanthroline, and 0.2% bovine serum albumin. After incubation for 60 minutes at 37° C., the assay mixture was filtered and the membranes washed three times with ice-cold buffer. Filters were dried and counted in a gamma counter for bound radioactivity. […] Maximal specific binding (100%) was defined as the difference in radioactivity (cpm) bound to cell membranes in the absence and presence of 1 μM NDP-α-MSH. […] Each assay was conducted in triplicate and the actual mean values are described, with results less than 0% reported as 0%. Ki values for test peptides of the present invention were determined using Graph-Pad Prism® curve-fitting software.
(§1) 9.1 Peptides of the following structures were synthesized by the general methods described above, and averaged MC4-R Ki values for peptides were determined as indicated. […] Ki values marked “ND” were not determined.

T1 sequence (P32245 whole entry): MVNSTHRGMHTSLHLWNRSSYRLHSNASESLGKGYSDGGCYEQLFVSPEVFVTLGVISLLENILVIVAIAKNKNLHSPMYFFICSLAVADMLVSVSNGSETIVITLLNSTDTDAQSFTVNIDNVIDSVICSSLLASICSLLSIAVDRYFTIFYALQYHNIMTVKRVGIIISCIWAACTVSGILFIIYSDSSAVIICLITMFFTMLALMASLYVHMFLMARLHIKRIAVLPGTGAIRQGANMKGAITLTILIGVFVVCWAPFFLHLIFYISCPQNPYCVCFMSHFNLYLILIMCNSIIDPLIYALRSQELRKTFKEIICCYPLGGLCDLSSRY

Ki	Binder
7 nM	Ac-RE[Orn](Ac)[dF]RW[Orn]-NH2 (lactam 2-7, also called peptide No. 149) [Ac-Arg-cyclo(Glu-Orn(Acetyl)-D-Phe-Arg-Trp-Orn)-NH2]
6 nM	Ac-RE[Pro(trans-4-NH2)][dF]RW[Orn]-NH2 (lactam 2-7, also called peptide No. 112) [Ac-Arg-Cyclo(Glu-Pro(4R-NH2)-D-Phe-Arg-Trp-Orn)-NH2]
8 nM	Ac-RE[Met(O2)][dF]RW[Orn]-NH2 (lactam 2-7, also called peptide No. 100) [Ac-Arg-cyclo(Glu-Met(O2)-D-Phe-Arg-Trp-Orn)-NH2]
15 nM	Ac-REK[dF]RW[Orn]-NH2 (lactam 2-7) [Ac-Arg-cyclo(Glu-Lys-D-Phe-Arg-Trp-Orn)-NH2]
167 nM	Ac-REN[dF]RW[Orn]-OH (lactam 2-7, also called peptide No. 91) [Ac-Arg-cyclo(Glu-Asn-D-Phe-Arg-Trp-Orn)-OH]
9 nM	Ac-RE[Met(O)][dF]RW[Orn]-NH2 (lactam 2-7, also called peptide No. 111) [Ac-Arg-cyclo(Glu-Met(═O)-D-Phe-Arg-Trp-Orn)-NH2]
5 nM	Ac-RD[Pro(trans-4-NH2)][dF]RWK-NH2 (lactam 2-7, also called peptide No. 80) [Ac-Arg-cyclo(Asp-Pro(4R-NH2)-D-Phe-Arg-Trp-Lys)-NH2]
9 nM	Ac-RE[Orn][dF]RW[Orn]-OH (lactam 2-7, also called peptide No. 90) [Ac-Arg-cyclo(Glu-Orn-D-Phe-Arg-Trp-Orn)-OH]
873 nM	Ac-RDK[dF][Cit]WK-NH2 (lactam 2-7, also called peptide No. 116) [Ac-Arg-cyclo(Asp-Lys-D-Phe-Cit-Trp-Lys)-NH2]
365 nM	Pentanoyl-EH[dF]R[Dab]W-NH2 (lactam 1-5, also called peptide No. 153) [n-C4H9-CO-cyclo(Glu-His-D-Phe-Arg-Dab)-Trp-NH2]
172 nM	Ac-RDS[dF]RWK-NH2 (lactam 2-7, also called peptide No. 3) [Ac-Arg-cyclo(Asp-Ser-D-Phe-Arg-Trp-Lys)-NH2]
15 nM	Ac-RD[Phe(3-CONH2)][dF]RWK-NH2 (lactam 2-7, also called peptide No. 49) [Ac-Arg-cyclo(Asp-Phe-(3-(C(═O)-NH2))-D-Phe-Arg-Trp-Lys)-NH2]
1 nM	Ac-RD[Thr(Bzl)][dF]RWK-NH2 (lactam 2-7, also called peptide No. 14) [Ac-Arg-cyclo(Asp-Thr(Bzl)-D-Phe-Arg-Trp-Lys)-NH2]
30 nM	Ac-RD[Phe(4-CONH2)][dF]RWK-NH2 (lactam 2-7, also called peptide No. 50) [Ac-Arg-cyclo(Asp-Phe(4-(C(═O)-NH2))-D-Phe-Arg-Trp-Lys)-NH2]
30 nM	Ac-RDK[dF]RWK-NH2 (lactam 2-7, also called peptide No. 2) [Ac-Arg-cyclo(Asp-Lys-D-Phe-Arg-Trp-Lys)-NH2]
100 nM	Ac-RDN[dF]RWK-OH (lactam 2-7, also called peptide No. 56) [Ac-Arg-cyclo(Asp-Asn-D-Phe-Arg-Trp-Lys)-OH]

Ki	Binder
7 nM	Ac-RD[Met(O2)][dF]RWK-NH2 (lactam 2-7, also called peptide No. 77) [Ac-Arg-cyclo(Asp-Met-(O2)-D-Phe-Arg-Trp-Lys)-NH2]
115 nM	Ac-RDQ[dF]RWK-OH (lactam 2-7, also called peptide No. 57) [Ac-Arg-cyclo(Asp-Gln-D-Phe-Arg-Trp-Lys)-OH]
20 nM	B1
4 nM	B2
6 nM	H-R[Orn]H[dF]RWE-NH2 (lactam 2-7, also called peptide No. 99) [Arg-cyclo(Orn-His-D-Phe-Arg-Trp-Glu)-NH2]
4 nM	Ac-RKQ[dF]RWD-NH2 (lactam 2-7, also called peptide No. 151) [Ac-Arg-cyclo(Lys-Gln-D-Phe-Arg-Trp-Asp)-NH2]
4 nM	Ac-REH[dF]RW[Orn]-OH (lactam 2-7, also called peptide No. 82) [Ac-Arg-cyclo(Glu-His-D-Phe-Arg-Trp-Orn)-OH]
50 nM	B3
15 nM	B4
4 nM	Ac-RD[Hyp][dF]RWK-NH2 (lactam 2-7, also called peptide No. 79) [Ac-Arg-cyclo(Asp-Hyp-D-Phe-Arg-Trp-Lys)-NH2]
0.6 nM	Ac-R[Orn]H[dF]RWE-NH2 (lactam 2-7, also called peptide No. 75) [Ac-Arg-cyclo(Orn-His-D-Phe-Arg-Trp-Glu)-NH2]
3 nM	B5
0.4 nM	B6
35 nM	B7
3 nM	Ac-RD[Hyp(Bzl)][dF]RWK-OH (lactam 2-7, also called peptide No. 54) [Ac-Arg-cyclo(Asp-Hyp(Bzl)-D-Phe-Arg-Trp-Lys)-OH]
12 nM	Ac-RD[Pro(Bn)][dF]RWK-OH (lactam 2-7, also called peptide No. 55) [Ac-Arg-cyclo(Asp-Pro(Bn)-D-Phe-Arg-Trp-Lys)-OH]

Target: T1, human recombinant melanocortin-4 …
Assay: competitive inhibition of Eu-NDP-α-MSH (TRF), hMC4-R HEK-293 membranes
Method: After incubation for 90 minutes at 37° C., the reaction was stopped by filtration over AcroWell 96-well filter plates (Pall Life Sciences). The filter plates were washed 4 times with 200 μL of ice-cold phosphate-buffered saline. DELFIA Enhancement solution (PerkinElmer Life Sciences) was added to each well. The plates were incubated on a shaker for 15 minutes and read at 340 nm excitation and 615 nm emission wavelengths. Each assay was conducted in duplicate and mean values were utilized. Ki values were determined by curve-fitting with Graph-Pad Prism® software using a one-site fixed-slope competition binding model.
as §1

Ki	Binder
0.7 nM	Ac-RD[Hyp(Bzl)][dF]RWK-NH2 (lactam 2-7, also called peptide No. 15) [Ac-Arg-cyclo(Asp-Hyp(Bzl)-D-Phe-Arg-Trp-Lys)-NH2]
144 nM	B8
3020 nM	B9
19 nM	Ac-RDA[dF]RWK-NH2 (lactam 2-7, also called peptide No. 9) [Ac-Arg-cyclo(Asp-Ala-D-Phe-Arg-Trp-Lys)-NH2]
